# Results: patent publication US20160272693A1 (ZEALAND PHARMA A S, published 2016)
# Like-named read-outs stand apart in the source and are kept apart here. *1 amine or outer side, *2 acyl side, *3 side chain or, on linkers, in order; H or OH if unused. Bridges are numbered along the chain shown (N, C = ends). [ ]: non-standard residue; d: D form. The star is where a group is joined. C20 diacid = O=C(O)CCCCCCCCCCCCCCCCCCC(=O)*; γGlu = O=C(O)[C@H](CCC(=O)[*:2])N[*:1]; Hyp = O=C(O)[C@@H]1C[C@@H](O)CN1; NMeI = CC[C@H](C)[C@H](NC)C(=O)O; Aad = N[C@@H](CCCC(=O)O)C(=O)O; Sar = CNCC(=O)O
# T1: human amylin receptor 3 (hAMYR3), hCTR2 co-expressed with human receptor activity modifying protein 3 (hRAMP3) (human, UniProt P30988 25-474; O60896 24-148)
# T1 sequence (looked up) 1: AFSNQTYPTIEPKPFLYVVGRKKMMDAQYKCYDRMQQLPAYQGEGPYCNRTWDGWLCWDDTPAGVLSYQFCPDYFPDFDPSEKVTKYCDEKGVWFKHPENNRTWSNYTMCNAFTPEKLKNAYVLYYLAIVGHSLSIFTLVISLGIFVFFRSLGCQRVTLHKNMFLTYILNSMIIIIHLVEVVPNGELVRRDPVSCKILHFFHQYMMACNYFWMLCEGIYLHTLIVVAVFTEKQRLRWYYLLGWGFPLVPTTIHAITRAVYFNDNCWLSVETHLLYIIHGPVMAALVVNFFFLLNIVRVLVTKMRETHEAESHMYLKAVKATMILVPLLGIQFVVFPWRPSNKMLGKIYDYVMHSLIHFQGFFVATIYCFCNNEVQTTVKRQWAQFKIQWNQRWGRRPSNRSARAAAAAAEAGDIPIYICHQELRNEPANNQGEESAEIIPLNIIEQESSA
# T1 sequence (looked up) 2: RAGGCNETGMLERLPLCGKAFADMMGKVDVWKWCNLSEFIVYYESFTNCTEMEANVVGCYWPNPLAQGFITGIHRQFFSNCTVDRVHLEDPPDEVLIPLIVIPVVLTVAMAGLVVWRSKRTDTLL
# Key:
# [1] = target: T1, human amylin receptor 3 (hAMYR3), hCTR2 …; test: cell-based or functional assay
# [2] = target: T1, human amylin receptor 3 (hAMYR3), hCTR2 …; test: cell-based or functional assay; remark: listed apart in the source
hAMYR3 EC50 (nM); cAMP induction [1] [nM],hAMYR3 EC50 (nM); cAMP induction [2] [nM],Binder
0.15,0.15,{C20 diacid-γGlu}-RCNTATCATQRLAEFLHHSSNNFGPILPPTNVGSNTP-NH2 (disulfide 2-7; SMILES CC[C@H](C)[C@H](NC(=O)[C@@H]1CCCN1C(=O)CNC(=O)[C@H](Cc1ccccc1)NC(=O)[C@H](CC(N)=O)NC(=O)[C@H](CC(N)=O)NC(=O)[C@H](CO)NC(=O)[C@H](CO)NC(=O)[C@H](Cc1c[nH]cn1)NC(=O)[C@H](Cc1c[nH]cn1)NC(=O)[C@H](CC(C)C)NC(=O)[C@H](Cc1ccccc1)NC(=O)[C@H](CCC(=O)O)NC(=O)[C@H](C)NC(=O)[C@H](CC(C)C)NC(=O)[C@H](CCCNC(=N)N)NC(=O)[C@H](CCC(N)=O)NC(=O)[C@@H](NC(=O)[C@H](C)NC(=O)[C@@H]1CSSC[C@H](NC(=O)[C@H](CCCNC(=N)N)NC(=O)CC[C@H](NC(=O)CCCCCCCCCCCCCCCCCCC(=O)O)C(=O)O)C(=O)N[C@@H](CC(N)=O)C(=O)N[C@@H]([C@@H](C)O)C(=O)N[C@@H](C)C(=O)N[C@@H]([C@@H](C)O)C(=O)N1)[C@@H](C)O)C(=O)N[C@@H](CC(C)C)C(=O)N1CCC[C@H]1C(=O)N1CCC[C@H]1C(=O)N[C@H](C(=O)N[C@@H](CC(N)=O)C(=O)N[C@H](C(=O)NCC(=O)N[C@@H](CO)C(=O)N[C@@H](CC(N)=O)C(=O)N[C@H](C(=O)N1CCC[C@H]1C(N)=O)[C@@H](C)O)C(C)C)[C@@H](C)O)
0.11,0.11,{C20 diacid-γGlu}-RCQTATCATERLAHFLQRSSF[Sar]A[NMeI]LSSTEVGSNT[Hyp]-NH2 (disulfide 2-7; SMILES CC[C@H](C)[C@@H](C(=O)N[C@@H](CC(C)C)C(=O)N[C@@H](CO)C(=O)N[C@@H](CO)C(=O)N[C@H](C(=O)N[C@@H](CCC(=O)O)C(=O)N[C@H](C(=O)NCC(=O)N[C@@H](CO)C(=O)N[C@@H](CC(N)=O)C(=O)N[C@H](C(=O)N1C[C@H](O)C[C@H]1C(N)=O)[C@@H](C)O)C(C)C)[C@@H](C)O)N(C)C(=O)[C@H](C)NC(=O)CN(C)C(=O)[C@H](Cc1ccccc1)NC(=O)[C@H](CO)NC(=O)[C@H](CO)NC(=O)[C@H](CCCNC(=N)N)NC(=O)[C@H](CCC(N)=O)NC(=O)[C@H](CC(C)C)NC(=O)[C@H](Cc1ccccc1)NC(=O)[C@H](Cc1c[nH]cn1)NC(=O)[C@H](C)NC(=O)[C@H](CC(C)C)NC(=O)[C@H](CCCNC(=N)N)NC(=O)[C@H](CCC(=O)O)NC(=O)[C@@H](NC(=O)[C@H](C)NC(=O)[C@@H]1CSSC[C@H](NC(=O)[C@H](CCCNC(=N)N)NC(=O)CC[C@H](NC(=O)CCCCCCCCCCCCCCCCCCC(=O)O)C(=O)O)C(=O)N[C@@H](CCC(N)=O)C(=O)N[C@@H]([C@@H](C)O)C(=O)N[C@@H](C)C(=O)N[C@@H]([C@@H](C)O)C(=O)N1)[C@@H](C)O) [[19CD]-isoGlu-R-C( )-QTAT-C( )-ATERLAHFLQRSSF-Gly(Me)-A-Ile(Me)-LSSTEVGSNT-Hyp-NH2 (Compd. 57)]
0.2,0.2,{C20 diacid}-[γGlu]RCQTATCATDRLA[Aad]FLQRSSF[Sar]A[NMeI]LSSTEVGSNT[Hyp]-NH2 (disulfide 3-8; SMILES CC[C@H](C)[C@@H](C(=O)N[C@@H](CC(C)C)C(=O)N[C@@H](CO)C(=O)N[C@@H](CO)C(=O)N[C@H](C(=O)N[C@@H](CCC(=O)O)C(=O)N[C@H](C(=O)NCC(=O)N[C@@H](CO)C(=O)N[C@@H](CC(N)=O)C(=O)N[C@H](C(=O)N1C[C@H](O)C[C@H]1C(N)=O)[C@@H](C)O)C(C)C)[C@@H](C)O)N(C)C(=O)[C@H](C)NC(=O)CN(C)C(=O)[C@H](Cc1ccccc1)NC(=O)[C@H](CO)NC(=O)[C@H](CO)NC(=O)[C@H](CCCNC(=N)N)NC(=O)[C@H](CCC(N)=O)NC(=O)[C@H](CC(C)C)NC(=O)[C@H](Cc1ccccc1)NC(=O)[C@H](CCCC(=O)O)NC(=O)[C@H](C)NC(=O)[C@H](CC(C)C)NC(=O)[C@H](CCCNC(=N)N)NC(=O)[C@H](CC(=O)O)NC(=O)[C@@H](NC(=O)[C@H](C)NC(=O)[C@@H]1CSSC[C@H](NC(=O)[C@H](CCCNC(=N)N)NC(=O)CC[C@H](NC(=O)CCCCCCCCCCCCCCCCCCC(=O)O)C(=O)O)C(=O)N[C@@H](CCC(N)=O)C(=O)N[C@@H]([C@@H](C)O)C(=O)N[C@@H](C)C(=O)N[C@@H]([C@@H](C)O)C(=O)N1)[C@@H](C)O) [[19CD]-isoGlu-R-C( )-QTAT-C( )-ATDRLA-Aad-FLQRSSF-Gly(Me)-A-Ile(Me)-LSSTEVGSNT-Hyp-NH2 (Compd. 89)]
